Source: the nanobody polyreactivity screen of Harvey et al. (2022)

Experiment: yeast display, Sf9 membrane polyspecificity reagent, FACS + sequencing; frameworks hold sequencing errors
Outline: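 Nanobodies came from a synthetic yeast display library in Saccharomyces cerevisiae BJ5465, induced with galactose for 36–48 hours and stained for 1 hour at 4 °C with 10% biotinylated, detergent-solubilized Sf9 membrane reagent. Cells were enriched on streptavidin microbeads and then FACS-sorted, with low and high (top ~1%) gates set on anti-HA fluorescence for expression and streptavidin fluorescence for reagent binding. Each polyreactivity label reflects the gate a clone came from. Genes were amplified by colony PCR, sequenced by MiSeq 2 × 250 and filtered by CDR length.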

| Sequence | polyreactivity (PSR sort gate) |
| --- | --- |
| QVQLVESGGGLVQAGGSLRLSCAASGSTFSLYAMGWYRQAPGIERELVAAIRSSGSTKYADSVKGRFTISRDNAKNTVYLQINSLKPEETAVYYCAAVSVTRADGRSGYEYWGQGTQVTVSS | low polyreactivity |
| QVQLVESGGGLVQAGGSLRISCAASGSNFSYYAMGWYRQAPGKEREFVAAISWSGGSTYYADSVKGRFTISRDNAKNTVYLQMNSLKPEDTAVYYCAAELSLSWLVPEVPYYYWGQGTQVTGSS | low polyreactivity |
| QVQLVESGGGLVQAGGSLRLCCAASGLTFHRYAMGSYRQAPGKERELDAAINYSGGRTYYADSVKGRFTISRDNAKNTVYLQMNSLKPEDTAVYYCAAPRASGYYWGQGTQVTVSS | high polyreactivity |
| QVQLVESGGGLVQAGGSLRLSCAASGRIFYGNAMGWYRQAPGKERQLVAAITDGGSTNYADSVKGRFTISRDNAKNTVYLQINSLKPEDTAVYYCNADNILYWSTLDYWGQGTQVTVSS | low polyreactivity |
| QVQLVESGGGLVQAGGSLRLSCAASGFIFTVNAMGWYRQAPGKERELVAAITQSGGNTSYADSVKGRFTISRDNAKNTVYLQMNSLKPEDTAVYYCNAEYTWPYHGVRNGWFNFKYEYWGQGTQVTVSS | low polyreactivity |
| QVQLVESGGGLVQAGGSLRLSCAASGTTFARNAMGWYRQAPGKERELVAVISYSGGSSYADSVKGRFTISRDNAKNTVYFHMKSLKPEVTAVYYCAARAWYPSRYDFWGQGTQVIVSS | high polyreactivity |
| QVQLVESGGGLVQAGGILRLSCAASGSTFGDYTMGWYRHAPGKERELVAAITLTGGSTFYSDSVKGRFTISRDNAKNTVYLQMNSLKPVDTAVYYCNTDVIRWVGGTWHRYYYWGQGTQVTVSS | low polyreactivity |
| QDQLVESGGGLVQAGGSLRLSCAASGRTFADYAMGWYRQAPGKERELVAAISWRGGSTYYADSVKGRFTISRDNAKNTVYLQLNSLNPEDTAVYYCNKAYPADYDYWGQGTQVTVSS | low polyreactivity |
| QVQLVESGGGLVQAGGSLRLSCAASGSIFAYNAMGWYRQAPGKEREFVAVITRSDDSTYADSVKGRFTISRDNAKNTVYLQMNSLKPEDTAVYYCAAEYYETPYASLGYDYWGQGTQVTVSS | low polyreactivity |
| QVQLVESGGGLVQAGGSLRLSCAASGGIFRGNAMGWYRQAPGKERELVAAISSSGGSTYYADSVKGRFTISRDNAKNTVYLQMNSLKPEDTAVYYCAATRYSTRFGARGYWGQGTQVTVSS | high polyreactivity |
| QVQLVESGGGLVQAGGSLRLSCAASGRTFPWKVMGWYRQPPGKERELVAAITRSGGSTYYADSVKGRFTISRDNAKNTVYLQMNSLKQEDTAVYYCAKRGYTSSRRWIYDYWGQGTQVTVSS | high polyreactivity |
| QVQLVESGGGLVQAGGSLRLSCAASGSTFSANTMGWYRQAPGKERELVAGITNTGDTYYADSVKGRFTISRDNAKNTVYFQMNSLKPEDTAVYYCAADSWRRTDGAYWSTVYYWGQGTQVTVSS | low polyreactivity |
| QVQLVESGGGLVQEGGSLRLSCAASGFIFGWYAMGWYRQAPGKERELVATISSSGGSTYYADSVKGRFTISRDNAKNTVYLQMNSLKPEDTAVYYCAARPRRYYSAQDMDYWGQGTQVTVSS | high polyreactivity |
| QVQLVESGGRLVQAGGSLRLRCAASGSTFMSNAMGWYRPAPGKERELVAAITGSGGNTYYADSVKGRFTISRDNAKNTVYLQMNSLKPEDTAVYYCAAVAPRSNYWRGYYYWGQGTQVTVSS | high polyreactivity |
| QFQLVESGGGLVQAGGSLRLSCAASGSTFYTTDMGWYRQAPGKERELVASITSAGNTNYADSVKGRFTISRDNAKNSVYLQMNSLKPEDTAVYYYYYYQYDYWGQGTQVTVSS | low polyreactivity |
| QVQLVESGGGLVQAGGSLRLSCAASGYIFERNALGWYRQAPGKERELVAAINWRTGRTYYADSVKGRFTISRDYAKYNVYLQMNSLKPEDTAVYYCAKEHSTYWAQPTYSYDNWGQGTQVTVSS | low polyreactivity |
| QVQLVESGGGLVQAGGSLRLSCAASGHTFYYYTMGWYRQAPGKERELVASIRNGGNTNYADSVKGRFTISRDTAKNTVYLQMHSLKPEDTAVYYCAAVFGWSYITAYDWGQGTQVTVSS | high polyreactivity |
| QVQLVESGGGLVQAGGSLRLSCAASGLIFKSYVMGWYRQSPGKERELVAGITGSGGTTYYADSVKGRFTISRDNAKNTVYLQMNSLKPEDTAVYYCAAVFETGAGGFYYTLQYDSWGQGTQVTVSS | high polyreactivity |
| QVQLVESGGGLVQAGGSLRLSCAASGRTFVSNSMGWYRQAPGKERELVAAISSSGGSTYYADSVKGRFTISRDNEKNTVYLQMNILKPEETAVYYCANDPWYSKYRYDHWGQGTQVTVSS | high polyreactivity |
| QLQLVESGGGLVQAGGSLRLSCAAAGSTFRLYAMGWYRPAPGKERKLVAAISGRGDRTYYADSVKGRFTISRDNAKNAVYLQMISLKPEDTAVYSCAAKSGFIPYDYWGQGTQVTVSS | high polyreactivity |
| QVQLVESGGGLVQAGGSLRLSCAASGRTFSEYAMGWYRQAPGKERELVAAITENGGSTYYADSVKGRFTISRDNAKNTVYLQMNSLKPEDTAVYYCAAETWADWYSEFYWGQGTQVTVSS | high polyreactivity |
| QVQLVESGGGLVQAGGSLPLSCAASGSIFGTYAMGWYRQAPGKERELVAAITTSAGSTYYADSVKGRFTISRDNAKNTVYLQMKSLKPEDTAVYYCAARFRRGITYEYWGQGTQVTVSS | high polyreactivity |

| Sequence | polyreactivity (PSR sort gate) |
| --- | --- |
| QDQLVESGGGIVQAGGSLRLSCAASGRTFYRYAMGWYRQAPGKERELVATISGGGSTNYADSVKGRFTISRDNAKNTVYFQMNSLKPEDTAVYYCAVRLRPPYYLPYYYWGQGTQVTVSS | high polyreactivity |
| QVQLVESGGGLVQAGGSLRLSCAASGSTFGDYAMGWYRQAPGKERELVAAISARGASTYYADSVKGRFTISRDNAKNTVYLQMNSLKPEDTAVYYCAARYVSSGRRFDYCGQGTQVTVSS | high polyreactivity |
| QVQLVESVGCLVQAGGTLRLSCAATGRIFADYAMGWYRQAPGKERELVATITSGDRTYYADSVKGRFTTSRDNAKNTVYLQMNSLKPEDTAVYYCAAYKPWYVGLYPWYDYWGQGTQVTVSS | low polyreactivity |
| QFQLVESGGGLVQAGGSLRLSSAASGRTFLSYTMVWYRQAPGKERQFVAAITTSGGSTNYADSVKGRFTISRDNAKNTVYLQMNSLKAEDTAVYYCADEWSVYFYDPRSDYWGQGNQVTVSS | high polyreactivity |
| QVQLVESGGGLVQAGGSLRLSCAASGFIFRDNAMGWYRQAPGKERELVAAISSRGGSTYYADSVKGRFTISRDNAKNTVYLQMNSLKPEDTAVYYCAKRPYKSRVQLDSWGQGTQVTVSS | high polyreactivity |
| KVQLVESGGGLVQAGGSLRLSCAASGRIFYVNTMGWYRQAPGKERELVATITWGGDSTYYADSVKGRFTISRDNAKNTVYLQMNSLKPEDTAVYYCAADHHDIRLNTRRYDYWGQGTQVTVSS | low polyreactivity |
| QVQLVESGGGLVQAGGSLRLSCAASGSIFYGYAMGWYRQAPGKERELVAAISSSGGTTYYADSVKGRFTISRDNAKNTVYLQMNSLKPEDTAVYYCAALGGYYYRTRYNGDYWGHGTQVTVSS | high polyreactivity |
| QVQLVESGGGLVQAGGSLRLSCAASGSIIARYAMGWYRQAPGKERELVAAITWSATSTYYADSVKGRFTISRDNAKNTVYLQMNSLKREDTAVYYCNAGASYFLVISQSRRDYWGQGTQVTVSS | low polyreactivity |
| QVQLVESGGGLVQAGGRLRLSCAASGRTFRLYAMGWYRQAPGKERELVAAINYSDGSTYYADSVKGRFTISRDIAKNTVYLQMNSLKPEDSAVSYCAADLQSGYTIPTSIVEYHPFDYWGQGTQVTVSS | low polyreactivity |
| QVQLVESGGGLVQAGGSLRLSCAASGYTIRYYAMGWYRQAPGKERDLVAAISSSGGNTYYADSVKGRFTISSDNAKNTVYLQMNSLKPEDTAVYYCAAAYHPYHRVTGHDGGYDYWGQGTQVTVSS | low polyreactivity |
| QVQLVESGGGLVQAGGSLRLSCAASGRIIGFNAMGWYRQAPGKERELVASIRTTGGSTRYADSVKGRFTISRDNAKNTVYLQMNSLIPEDTAVYYCAARWGKTLWQYNYWGQGTQVTVSS | high polyreactivity |
| QVQLVESRGGLVQAGGSLRLSCAASGRNFKANTMGWYRQAPGKERVVVAAITASGGTTYYADSVKGRFTISRDNAKNTVYLQMTSLKPEDTAVYYCAAAVWYRGWYRYEYWGQGSQVTVSS | low polyreactivity |
| QVQLVESGGGLVQAGGSLRLSCAASGSTFVYNAMGWYRQAPGKERELVAAISSRGGGTYYADSVKGRFTISRDNAKNSVYLQMYSLKPEDTAVYYCNTLPYTHGSNDYWGQGTQVTVSS | high polyreactivity |
| QVQLVESGGGLVQAGGSLRLSCAASGIILYGYAMGWSRQAPGKERELVAAITKSGGSTYYADSVKGRFTISRDNAKNTVYLQMNSLKPEDTAVYYCAAKRWGIWYYGYRPDDYWGQGTQVTVSS | low polyreactivity |
| QVQLVESGGGLVQAGGSLRLSCAASGRTFYTYAMGWYRQAPGKERELVAAINWSATRTYYADSVKGRFTISRDNAKNTVYLQMNSLKPEDTAVYYCNAVYYRSSYPSGRYGMDYWGQGTQVTVSS | high polyreactivity |
| QVQLVESGGGLVQAGGSLRLSCAASGITLTIYTMGWYRQAPGKERELVAAINWSGTRTYYADSVKGRFTISRDNAKNTVYFQMNSLKPEDTAVYYCAATTYRYPNILGYDYWGQGTQVSVSS | high polyreactivity |
| QVQLVESGGGLVQAGGSLRLSCAASGSTFGPYVMGWYRQAPGKERELVAAISQSGGSTYYADSVKGRFTISRDNAKNTVYLQMNSLKPEDTAVYYCAAQTPYGMYYWGQGTQVTVSS | low polyreactivity |
| QVQLVESGGGLVQAGGSLRLSCAASGSTFRSNAMGWYRPAPGKERELVAAISSRVGTTYYADSVKGRFTISRDNAKNTVYLQMNSLKPEDTAVYYCAAQGWRYYRTVVPMDYWGQGTQVTVSS | low polyreactivity |
| QVQLVESGGGLVQAGGSLRLSCAASGNIFGPNAMGWYRQAPGKESELVAAISISGSTYYADSVKGRFTISRDNAKNTVYLQRNSLNPEDTAVYYCAADYDSDYSWKYNYWGQGTQVTVSS | low polyreactivity |
| QVQLVESGGGLVQAGGSLRLSCAASGRTFPGYAMGWYRQAPGKERELVAGISYRGGSTYYADSVKGRFTISRDNAKNTVYLQMNSLKPEDTAVYYCNATYGGPYYIQYDYWGQGTQVTVSS | low polyreactivity |
| QVQLVESGGGLVQAGGSLRLSCAASGRILYYYAMGWSRQAPGKERELVAGITTDDSTNYADSVKGRFTISRDNAKNTVYLQMNSLKPEDTAVYYCAAKYVHGEYDYWGQGTQVTVSS | low polyreactivity |
